Reference: patent US9527896B2, “Stabilized p53 peptides and uses thereof” (DANA-FARBER CANCER INSTITUTE, INC., priority 2007, dated 2016)
Bridge positions count the residues as written; N and C are the ends. Square brackets hold non-standard residues; d marks the D form. Peptide text beside a SMILES is read from it. R8 = C=CCCCCCC[C@@](C)(N)C(=O)O; S5 = C=CCCC[C@](C)(N)C(=O)O; βAla = NCCC(=O)O

Assays:
circular dichroism = details: water; pH 7.0; 20 °C; 10-50 uM
HDM2 = target: T1, HDM2 (Homo sapiens, UniProt Q00987); assay: Kd (nM)
T1 construct: Co-Immunoprecipitation of FITC-SAH-p53 Peptides and Endogenous HDM2; endogenous in cells; host or cells: SJSA-1 osteosarcoma cells
Description: The patent's description of the figure: FIGS. 1A-1F Synthesis, Sequence, and Biochemical Analysis of SAH-p53 Peptides. FIG. 1A Non-natural amino acids were synthesized as described and cross-linked by ruthenium-catalyzed ring-closing olefin metathesis. […] Note: UAH-p53-8 is the “unstapled” form of SAH-p53-8.

T1 sequence (Q00987 whole entry, looked up): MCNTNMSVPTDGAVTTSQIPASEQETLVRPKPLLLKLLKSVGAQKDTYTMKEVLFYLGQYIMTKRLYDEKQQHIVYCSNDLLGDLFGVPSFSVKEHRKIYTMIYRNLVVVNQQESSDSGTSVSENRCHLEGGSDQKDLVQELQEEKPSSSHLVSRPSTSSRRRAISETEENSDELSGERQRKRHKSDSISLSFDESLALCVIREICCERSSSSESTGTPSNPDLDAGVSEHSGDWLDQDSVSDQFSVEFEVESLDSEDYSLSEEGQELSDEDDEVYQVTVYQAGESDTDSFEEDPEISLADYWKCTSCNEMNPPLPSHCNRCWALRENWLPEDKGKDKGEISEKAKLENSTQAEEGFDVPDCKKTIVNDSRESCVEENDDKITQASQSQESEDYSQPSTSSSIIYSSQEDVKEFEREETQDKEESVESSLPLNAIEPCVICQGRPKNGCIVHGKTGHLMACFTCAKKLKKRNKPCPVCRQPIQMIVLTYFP

SMILES | helicity (circular dichroism) [%] | Kd (HDM2) [nM]
CC(=O)NCCC(=O)N[C@@H](CC(C)C)C(=O)N[C@@H](CO)C(=O)N[C@@H](CCC(N)=O)C(=O)N[C@@H](CCC(=O)O)C(=O)N[C@H](C(=O)N[C@@H](Cc1ccccc1)C(=O)N[C@@H](CO)C(=O)N[C@@H](CC(=O)O)C(=O)N[C@@H](CC(C)C)C(=O)N[C@@H](Cc1c[nH]c2ccccc12)C(=O)N[C@@H](CCCCN)C(=O)N[C@@H](CC(C)C)C(=O)N[C@@H](CC(C)C)C(=O)N1CCC[C@H]1C(=O)N[C@@H](CCC(=O)O)C(=O)N[C@@H](CC(N)=O)C(N)=O)[C@@H](C)O | 11 | 
CC(=O)NCCC(=O)N[C@@H](CC(C)C)C(=O)N[C@@H](CO)C(=O)N[C@@H](CCC(N)=O)C(=O)N[C@@H](CCC(=O)O)C(=O)N[C@]1(C)CCCCCCC=CCCC[C@@](C)(C(=O)N[C@@H](CC(C)C)C(=O)N2CCC[C@H]2C(=O)N[C@@H](CCC(=O)O)C(=O)N[C@@H](CC(N)=O)C(N)=O)NC(=O)[C@H](CCCCN)NC(=O)[C@H](Cc2c[nH]c3ccccc23)NC(=O)[C@H](CC(C)C)NC(=O)[C@H](CC(=O)O)NC(=O)[C@H](CO)NC(=O)[C@H](Cc2ccccc2)NC1=O (Ac-[βAla]LSQE[R8]FSDLWK[S5]LPEN-NH2; staple 6-13) | 10 | 
CC(=O)NCCC(=O)N[C@@H](CC(C)C)C(=O)N[C@@H](CO)C(=O)N[C@@H](CCC(N)=O)C(=O)N[C@]1(C)CCCCCCC=CCCC[C@@](C)(C(=O)N[C@@H](CC(C)C)C(=O)N[C@@H](CC(C)C)C(=O)N2CCC[C@H]2C(=O)N[C@@H](CCC(=O)O)C(=O)N[C@@H](CC(N)=O)C(N)=O)NC(=O)[C@H](Cc2c[nH]c3ccccc23)NC(=O)[C@H](CC(C)C)NC(=O)[C@H](CC(=O)O)NC(=O)[C@H](CO)NC(=O)[C@H](Cc2ccccc2)NC(=O)[C@H]([C@@H](C)O)NC1=O (Ac-[βAla]LSQ[R8]TFSDLW[S5]LLPEN-NH2; staple 5-12) | 12 | 
CC(=O)NCCC(=O)N[C@@H](CC(C)C)C(=O)N[C@@H](CO)C(=O)N[C@@H](CCC(N)=O)C(=O)N[C@@H](CCC(=O)O)C(=O)N[C@H](C(=O)N[C@@H](Cc1ccccc1)C(=O)N[C@@H](CO)C(=O)N[C@@H](CC(=O)O)C(=O)N[C@]1(C)CCCCCCC=CCCC[C@@](C)(C(N)=O)NC(=O)[C@H](CCC(=O)O)NC(=O)[C@@H]2CCCN2C(=O)[C@H](CC(C)C)NC(=O)[C@H](CC(C)C)NC(=O)[C@H](CCCCN)NC(=O)[C@H](Cc2c[nH]c3ccccc23)NC1=O)[C@@H](C)O [SAH-p53-1] (Ac-[βAla]LSQETFSD[R8]WKLLPE[S5]-NH2; staple 10-17) | 25 | 100 ± 8
CC(=O)NCCC(=O)N[C@@H](CC(C)C)C(=O)N[C@@H](CO)C(=O)N[C@@H](CCC(N)=O)C(=O)N[C@@H](CCC(=O)O)C(=O)N[C@H](C(=O)N[C@@H](Cc1ccccc1)C(=O)N[C@]1(C)CCCCCCC=CCCC[C@@](C)(C(=O)N[C@@H](CCC(N)=O)C(=O)N[C@@H](CC(N)=O)C(N)=O)NC(=O)[C@H](CC(C)C)NC(=O)[C@H](CC(C)C)NC(=O)[C@H](CCCCN)NC(=O)[C@H](Cc2c[nH]c3ccccc23)NC(=O)[C@H](CC(C)C)NC(=O)[C@H](CC(N)=O)NC1=O)[C@@H](C)O [SAH-p53-5] (Ac-[βAla]LSQETF[R8]NLWKLL[S5]QN-NH2; staple 8-15) | 20 | 0.8 ± 0.05
C=CCCCCCC[C@@](C)(NC(=O)[C@H](Cc1ccccc1)NC(=O)[C@@H](NC(=O)[C@H](CCC(N)=O)NC(=O)[C@H](CCC(N)=O)NC(=O)[C@H](CO)NC(=O)[C@H](CCC(N)=O)NC(=O)CCNC(C)=O)[C@@H](C)O)C(=O)N[C@@H](CC(N)=O)C(=O)N[C@@H](CC(C)C)C(=O)N[C@@H](Cc1c[nH]c2ccccc12)C(=O)N[C@@H](CCCNC(=N)N)C(=O)N[C@@H](CC(C)C)C(=O)N[C@@H](CC(C)C)C(=O)N[C@@](C)(CCCC=C)C(=O)N[C@@H](CCC(N)=O)C(=O)N[C@@H](CC(N)=O)C(N)=O [UAH-p53-8, Ac-QSQQTF*NLWRKK*QN-NH2] | 36 | 
